# Reference: patent US12006373
# Target: human CD3ε expressed on Jurkat T cells (clone E6-1) as part of TCR-CD3 complexes (human) (UniProt P07766)
# Assay: cell-based or functional assay
# Chain of human CD3ε expressed on Jurkat T cells (clone E6-1) as part of TCR-CD3 complexes (human) (P07766 23-207, one chain of several): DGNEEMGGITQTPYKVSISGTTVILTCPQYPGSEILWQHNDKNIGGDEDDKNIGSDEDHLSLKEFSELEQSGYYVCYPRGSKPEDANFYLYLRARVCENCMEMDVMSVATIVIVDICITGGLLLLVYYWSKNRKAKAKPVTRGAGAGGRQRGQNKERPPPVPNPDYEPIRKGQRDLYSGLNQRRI
substance,measurement,value
biotin anti-human CD3ε (OKT3) antibody coated on M280 streptavidin Dynabeads,expansion of Jurkat cells during 48 hours of culture (hemocytometer count),1.9 times
